Reference: patent publication US10941182 (Amgen, dated 2021)
Values belong to the binder of their own block, whether it stands above or below them. Starred links: 1 amine or outer side, 2 acyl side, 3 side chain; linkers in the order of their positions; H or OH if unused. Non-standard residues stand in square brackets, D forms with d. *: point of attachment. Bh4ClF = β-4-chloro-L-homophenylalanine, O=C(C[C@H](Cc1ccc(Cl)cc1)N[*:1])[*:2]; AC4Abu = α-carboxy-4-aminobutyric acid, O=C(C(CCN[*:1])C(=O)[*:3])[*:2]; Oic = O=C(O)[C@@H]1C[C@@H]2CCCC[C@@H]2N1; Phe(4-Cl) = N[C@@H](Cc1ccc(Cl)cc1)C(=O)O; dPhe(4-I) = N[C@H](Cc1ccc(I)cc1)C(=O)O; γGlu = O=C(O)[C@H](CCC(=O)[*:2])N[*:1]; 1Nal = N[C@@H](Cc1cccc2ccccc12)C(=O)O; 2Nal = N[C@@H](Cc1ccc2ccccc2c1)C(=O)O; d2Nal = N[C@H](Cc1ccc2ccccc2c1)C(=O)O; dIgl = N[C@@H](C(=O)O)C1Cc2ccccc2C1; B4ClF = β-4-chloro-L-phenylalanine; Gly(cPent) = N[C@H](C(=O)O)C1CCCC1; Tridecanoyl = CCCCCCCCCCCCC(=O)*; hArg = N=C(N)NCCCC[C@H](N)C(=O)O; Cha = N[C@@H](CC1CCCCC1)C(=O)O; Aic = NC1(C(=O)O)Cc2ccccc2C1; Nle = CCCC[C@H](N)C(=O)O; Deg = CCC(N)(CC)C(=O)O; AEEA = NCCOCCOCC(=O)O

How the values were obtained:
[1] = biological target: T1, human APJ receptor (human, UniProt P35414 1-380); experiment: cell-based or functional assay
T1 sequence (looked up): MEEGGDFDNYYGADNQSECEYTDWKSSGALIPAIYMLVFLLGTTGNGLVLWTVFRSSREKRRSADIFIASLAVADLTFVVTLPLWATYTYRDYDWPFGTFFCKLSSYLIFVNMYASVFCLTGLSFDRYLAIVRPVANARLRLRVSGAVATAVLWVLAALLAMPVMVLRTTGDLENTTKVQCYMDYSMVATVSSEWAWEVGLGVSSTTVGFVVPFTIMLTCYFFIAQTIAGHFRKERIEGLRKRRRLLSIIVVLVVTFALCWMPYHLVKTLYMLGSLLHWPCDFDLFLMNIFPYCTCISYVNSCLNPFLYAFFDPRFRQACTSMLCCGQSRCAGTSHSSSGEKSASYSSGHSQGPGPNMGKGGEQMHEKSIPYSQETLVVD

[2] = biological target: T2, rat APJ receptor (rat, UniProt Q9JHG3 1-377); experiment: cell-based or functional assay
T2 sequence (looked up): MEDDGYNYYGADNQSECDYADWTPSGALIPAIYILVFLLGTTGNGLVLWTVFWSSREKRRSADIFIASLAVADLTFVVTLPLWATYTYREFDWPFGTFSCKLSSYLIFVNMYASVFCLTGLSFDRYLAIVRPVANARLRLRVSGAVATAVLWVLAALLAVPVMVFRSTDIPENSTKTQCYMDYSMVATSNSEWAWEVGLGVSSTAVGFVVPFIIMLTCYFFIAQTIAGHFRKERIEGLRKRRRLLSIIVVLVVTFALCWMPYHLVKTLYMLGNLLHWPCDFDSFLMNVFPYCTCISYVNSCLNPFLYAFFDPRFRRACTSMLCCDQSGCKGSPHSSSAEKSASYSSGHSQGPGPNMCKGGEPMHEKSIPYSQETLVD

B1: Apelin polypeptide SEQ ID NO: 407 (peptide)
peptide: Tridecanoyl-[AC4Abu][AEEA][AEEA][dQ][hArg]P[dR][Cha]SHKG[Oic][Nle]P[d2Nal]-OH
SMILES: CCCCCCCCCCCCC(=O)NCCC(C(=O)O)C(=O)NCCOCCOCC(=O)NCCOCCOCC(=O)N[C@H](CCC(N)=O)C(=O)N[C@@H](CCCCNC(=N)N)C(=O)N1CCC[C@H]1C(=O)N[C@H](CCCNC(=N)N)C(=O)N[C@@H](CC1CCCCC1)C(=O)N[C@@H](CO)C(=O)N[C@@H](Cc1c[nH]cn1)C(=O)N[C@@H](CCCCN)C(=O)NCC(=O)N1[C@H](C(=O)N[C@@H](CCCC)C(=O)N2CCC[C@H]2C(=O)N[C@H](Cc2ccc3ccccc3c2)C(=O)O)C[C@@H]2CCCC[C@@H]21
EC50 Human APJ Receptor (GTPγS assay) [1]: 124 nM | EC50 Rat APJ Receptor (GTPγS assay) [2]: 216 nM

Binder: Tridecanoyl-[γGlu][AEEA][AEEA][dQ][hArg]P[dR][Cha]SHKG[Oic][Nle]P[2Nal]-OH [Apelin polypeptide SEQ ID NO: 368]
EC50 Human APJ Receptor (GTPγS assay) [1]: 32.3 nM | EC50 Rat APJ Receptor (GTPγS assay) [2]: 31.4 nM

B2: Apelin polypeptide SEQ ID NO: 434 (peptide)
peptide: Tridecanoyl-[γGlu][AEEA][AEEA][dQ][hArg]P[dR][Deg]SHKG[Oic][Nle]P[Phe(4-Cl)]-OH
SMILES: CCCCCCCCCCCCC(=O)N[C@@H](CCC(=O)NCCOCCOCC(=O)NCCOCCOCC(=O)N[C@H](CCC(N)=O)C(=O)N[C@@H](CCCCNC(=N)N)C(=O)N1CCC[C@H]1C(=O)N[C@H](CCCNC(=N)N)C(=O)NC(CC)(CC)C(=O)N[C@@H](CO)C(=O)N[C@@H](Cc1c[nH]cn1)C(=O)N[C@@H](CCCCN)C(=O)NCC(=O)N1[C@H](C(=O)N[C@@H](CCCC)C(=O)N2CCC[C@H]2C(=O)N[C@@H](Cc2ccc(Cl)cc2)C(=O)O)C[C@@H]2CCCC[C@@H]21)C(=O)O
EC50 Human APJ Receptor (GTPγS assay) [1]: 11 nM | EC50 Rat APJ Receptor (GTPγS assay) [2]: 11.4 nM

Binder: Tridecanoyl-[γGlu][AEEA][AEEA]Q[hArg]P[dR][Cha]SHKG[Oic][Nle]P[D‑4ClF]-OH [Apelin polypeptide SEQ ID NO: 364]
EC50 Human APJ Receptor (GTPγS assay) [1]: 6 nM | EC50 Rat APJ Receptor (GTPγS assay) [2]: 20.4 nM

Binder: Tridecanoyl-[γGlu][AEEA][AEEA][dQ][hArg]P[dR][Cha]SHKG[Oic][Nle]P[Oic]-OH [Apelin polypeptide SEQ ID NO: 365]
EC50 Human APJ Receptor (GTPγS assay) [1]: 23 nM | EC50 Rat APJ Receptor (GTPγS assay) [2]: 20.7 nM

B4: Apelin polypeptide SEQ ID NO: 596 (peptide)
peptide: Tridecanoyl-[γGlu][AEEA][AEEA][dQ][hArg]P[dR][Cha]SHKG[Oic][Nle][Oic]-OH
SMILES: CCCCCCCCCCCCC(=O)N[C@@H](CCC(=O)NCCOCCOCC(=O)NCCOCCOCC(=O)N[C@H](CCC(N)=O)C(=O)N[C@@H](CCCCNC(=N)N)C(=O)N1CCC[C@H]1C(=O)N[C@H](CCCNC(=N)N)C(=O)N[C@@H](CC1CCCCC1)C(=O)N[C@@H](CO)C(=O)N[C@@H](Cc1c[nH]cn1)C(=O)N[C@@H](CCCCN)C(=O)NCC(=O)N1[C@H](C(=O)N[C@@H](CCCC)C(=O)N2[C@H](C(=O)O)C[C@@H]3CCCC[C@@H]32)C[C@@H]2CCCC[C@@H]21)C(=O)O
EC50 Human APJ Receptor (GTPγS assay) [1]: 5.13 nM | EC50 Rat APJ Receptor (GTPγS assay) [2]: 33.9 nM

B5: Apelin polypeptide SEQ ID NO: 595 (peptide)
peptide: Tridecanoyl-[γGlu][AEEA][AEEA][dQ][hArg]P[dR][Cha]SHKG[Oic][Nle][Aic]-OH
SMILES: CCCCCCCCCCCCC(=O)N[C@@H](CCC(=O)NCCOCCOCC(=O)NCCOCCOCC(=O)N[C@H](CCC(N)=O)C(=O)N[C@@H](CCCCNC(=N)N)C(=O)N1CCC[C@H]1C(=O)N[C@H](CCCNC(=N)N)C(=O)N[C@@H](CC1CCCCC1)C(=O)N[C@@H](CO)C(=O)N[C@@H](Cc1c[nH]cn1)C(=O)N[C@@H](CCCCN)C(=O)NCC(=O)N1[C@H](C(=O)N[C@@H](CCCC)C(=O)NC2(C(=O)O)Cc3ccccc3C2)C[C@@H]2CCCC[C@@H]21)C(=O)O
EC50 Human APJ Receptor (GTPγS assay) [1]: 50 nM | EC50 Rat APJ Receptor (GTPγS assay) [2]: 54.8 nM

Binder: Tridecanoyl-[γGlu][AEEA][AEEA][dQ][hArg]P[dR][Cha]SHKG[Oic][Nle]P[1Nal]-OH [Apelin polypeptide SEQ ID NO: 367]
EC50 Human APJ Receptor (GTPγS assay) [1]: 26.3 nM | EC50 Rat APJ Receptor (GTPγS assay) [2]: 67.5 nM

B6: Apelin polypeptide SEQ ID NO: 453 (peptide)
peptide: Tridecanoyl-[AC4Abu][AEEA][AEEA][dQ][hArg]P[dR][Cha]SHKG[Oic][Nle][dPhe(4-I)]-OH
SMILES: CCCCCCCCCCCCC(=O)NCCC(C(=O)O)C(=O)NCCOCCOCC(=O)NCCOCCOCC(=O)N[C@H](CCC(N)=O)C(=O)N[C@@H](CCCCNC(=N)N)C(=O)N1CCC[C@H]1C(=O)N[C@H](CCCNC(=N)N)C(=O)N[C@@H](CC1CCCCC1)C(=O)N[C@@H](CO)C(=O)N[C@@H](Cc1c[nH]cn1)C(=O)N[C@@H](CCCCN)C(=O)NCC(=O)N1[C@H](C(=O)N[C@@H](CCCC)C(=O)N[C@H](Cc2ccc(I)cc2)C(=O)O)C[C@@H]2CCCC[C@@H]21
EC50 Human APJ Receptor (GTPγS assay) [1]: 19 nM | EC50 Rat APJ Receptor (GTPγS assay) [2]: 20.8 nM

Binder: Tridecanoyl-[γGlu][AEEA][AEEA][dQ][hArg]P[dR][Cha]SHKG[Oic][Nle]P[Bh4ClF]-OH [Apelin polypeptide SEQ ID NO: 370]
EC50 Human APJ Receptor (GTPγS assay) [1]: 12.9 nM | EC50 Rat APJ Receptor (GTPγS assay) [2]: 23.7 nM

B8: Apelin polypeptide SEQ ID NO: 406 (peptide)
peptide: Tridecanoyl-[AC4Abu][AEEA][AEEA][dQ][hArg]P[dR][Cha]SHKG[Oic][Nle]P[Gly(cPent)]-OH
SMILES: CCCCCCCCCCCCC(=O)NCCC(C(=O)O)C(=O)NCCOCCOCC(=O)NCCOCCOCC(=O)N[C@H](CCC(N)=O)C(=O)N[C@@H](CCCCNC(=N)N)C(=O)N1CCC[C@H]1C(=O)N[C@H](CCCNC(=N)N)C(=O)N[C@@H](CC1CCCCC1)C(=O)N[C@@H](CO)C(=O)N[C@@H](Cc1c[nH]cn1)C(=O)N[C@@H](CCCCN)C(=O)NCC(=O)N1[C@H](C(=O)N[C@@H](CCCC)C(=O)N2CCC[C@H]2C(=O)N[C@H](C(=O)O)C2CCCC2)C[C@@H]2CCCC[C@@H]21
EC50 Human APJ Receptor (GTPγS assay) [1]: 33.6 nM | EC50 Rat APJ Receptor (GTPγS assay) [2]: 73 nM

Next, values leading:

EC50 Human APJ Receptor (GTPγS assay) [1]: 11.1 nM | EC50 Rat APJ Receptor (GTPγS assay) [2]: 16.2 nM
Binder: Tridecanoyl-[γGlu][AEEA][AEEA][dQ][hArg]P[dR][Cha]SHKG[Oic][Nle]P[B4ClF]-OH [Apelin polypeptide SEQ ID NO: 432]

EC50 Human APJ Receptor (GTPγS assay) [1]: 17.1 nM | EC50 Rat APJ Receptor (GTPγS assay) [2]: 23.6 nM
Binder: Tridecanoyl-[γGlu][AEEA][AEEA][dQ][hArg]P[dR][Cha]SHKG[Oic][Nle]P[Aic]-OH [Apelin polypeptide SEQ ID NO: 366]

EC50 Human APJ Receptor (GTPγS assay) [1]: 2.81 nM | EC50 Rat APJ Receptor (GTPγS assay) [2]: 3.31 nM
B3: Apelin polypeptide SEQ ID NO: 373 (peptide)
peptide: Tridecanoyl-[γGlu][AEEA][AEEA][dQ][hArg]P[dR][Cha]SYKG[Oic][Nle]P[Phe(4-Cl)]-OH
SMILES: CCCCCCCCCCCCC(=O)N[C@@H](CCC(=O)NCCOCCOCC(=O)NCCOCCOCC(=O)N[C@H](CCC(N)=O)C(=O)N[C@@H](CCCCNC(=N)N)C(=O)N1CCC[C@H]1C(=O)N[C@H](CCCNC(=N)N)C(=O)N[C@@H](CC1CCCCC1)C(=O)N[C@@H](CO)C(=O)N[C@@H](Cc1ccc(O)cc1)C(=O)N[C@@H](CCCCN)C(=O)NCC(=O)N1[C@H](C(=O)N[C@@H](CCCC)C(=O)N2CCC[C@H]2C(=O)N[C@@H](Cc2ccc(Cl)cc2)C(=O)O)C[C@@H]2CCCC[C@@H]21)C(=O)O

EC50 Human APJ Receptor (GTPγS assay) [1]: 25.9 nM | EC50 Rat APJ Receptor (GTPγS assay) [2]: 42 nM
Binder: Tridecanoyl-[γGlu][AEEA][AEEA][dQ][hArg]P[dR][Cha]SHKG[Oic][Nle]P[D‑4IF]-OH [Apelin polypeptide SEQ ID NO: 369]

EC50 Human APJ Receptor (GTPγS assay) [1]: 31.2 nM | EC50 Rat APJ Receptor (GTPγS assay) [2]: 25 nM
B7: Apelin polypeptide SEQ ID NO: 431 (peptide)
peptide: Tridecanoyl-[γGlu][AEEA][AEEA][dQ][hArg]P[dR][Cha]SHKG[Oic][Nle]P[dIgl]-OH
SMILES: CCCCCCCCCCCCC(=O)N[C@@H](CCC(=O)NCCOCCOCC(=O)NCCOCCOCC(=O)N[C@H](CCC(N)=O)C(=O)N[C@@H](CCCCNC(=N)N)C(=O)N1CCC[C@H]1C(=O)N[C@H](CCCNC(=N)N)C(=O)N[C@@H](CC1CCCCC1)C(=O)N[C@@H](CO)C(=O)N[C@@H](Cc1c[nH]cn1)C(=O)N[C@@H](CCCCN)C(=O)NCC(=O)N1[C@H](C(=O)N[C@@H](CCCC)C(=O)N2CCC[C@H]2C(=O)N[C@@H](C(=O)O)C2Cc3ccccc3C2)C[C@@H]2CCCC[C@@H]21)C(=O)O
